Laboratory results from article doi:10.1101/791277.

Tests used:
[1] = target: p85α nSH2, 325-430 (UniProt P27986); assay: fluorescence polarization titration; conditions: reference: unphosphorylated p85β peptide; sites Y599
[2] = target: p85β nSH2, 312-425 (UniProt O08908); assay: fluorescence polarization titration; conditions: reference: unphosphorylated p85β peptide; sites Y599
Sequence of p85β nSH2, 312-425 (O08908 whole entry, looked up, tested part not stated): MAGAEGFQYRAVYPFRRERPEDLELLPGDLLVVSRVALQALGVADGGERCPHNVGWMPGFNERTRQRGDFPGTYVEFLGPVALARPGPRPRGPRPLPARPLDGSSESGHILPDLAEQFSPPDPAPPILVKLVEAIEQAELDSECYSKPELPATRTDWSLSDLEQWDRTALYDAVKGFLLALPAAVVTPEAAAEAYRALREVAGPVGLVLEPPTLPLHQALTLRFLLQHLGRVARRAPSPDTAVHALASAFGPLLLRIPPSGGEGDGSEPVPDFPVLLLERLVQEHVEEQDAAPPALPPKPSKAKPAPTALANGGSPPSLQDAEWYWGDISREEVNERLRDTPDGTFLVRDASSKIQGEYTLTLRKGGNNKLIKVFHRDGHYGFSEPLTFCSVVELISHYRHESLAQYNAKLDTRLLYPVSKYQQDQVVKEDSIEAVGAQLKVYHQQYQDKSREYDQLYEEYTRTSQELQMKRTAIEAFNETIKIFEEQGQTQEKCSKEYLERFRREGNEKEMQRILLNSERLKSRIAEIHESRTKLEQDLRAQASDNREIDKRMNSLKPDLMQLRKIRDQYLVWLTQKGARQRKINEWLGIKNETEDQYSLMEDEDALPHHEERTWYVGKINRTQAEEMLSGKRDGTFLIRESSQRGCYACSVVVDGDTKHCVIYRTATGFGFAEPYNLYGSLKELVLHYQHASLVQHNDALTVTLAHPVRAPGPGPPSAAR

Sequence of p85β (O08908 312-425, change not shown): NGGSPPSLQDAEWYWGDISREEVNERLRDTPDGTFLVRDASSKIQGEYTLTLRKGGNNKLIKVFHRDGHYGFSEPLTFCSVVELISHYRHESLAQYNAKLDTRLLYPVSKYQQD
Sequence of p85α nSH2, 325-430 (P27986 whole entry, looked up, tested part not stated): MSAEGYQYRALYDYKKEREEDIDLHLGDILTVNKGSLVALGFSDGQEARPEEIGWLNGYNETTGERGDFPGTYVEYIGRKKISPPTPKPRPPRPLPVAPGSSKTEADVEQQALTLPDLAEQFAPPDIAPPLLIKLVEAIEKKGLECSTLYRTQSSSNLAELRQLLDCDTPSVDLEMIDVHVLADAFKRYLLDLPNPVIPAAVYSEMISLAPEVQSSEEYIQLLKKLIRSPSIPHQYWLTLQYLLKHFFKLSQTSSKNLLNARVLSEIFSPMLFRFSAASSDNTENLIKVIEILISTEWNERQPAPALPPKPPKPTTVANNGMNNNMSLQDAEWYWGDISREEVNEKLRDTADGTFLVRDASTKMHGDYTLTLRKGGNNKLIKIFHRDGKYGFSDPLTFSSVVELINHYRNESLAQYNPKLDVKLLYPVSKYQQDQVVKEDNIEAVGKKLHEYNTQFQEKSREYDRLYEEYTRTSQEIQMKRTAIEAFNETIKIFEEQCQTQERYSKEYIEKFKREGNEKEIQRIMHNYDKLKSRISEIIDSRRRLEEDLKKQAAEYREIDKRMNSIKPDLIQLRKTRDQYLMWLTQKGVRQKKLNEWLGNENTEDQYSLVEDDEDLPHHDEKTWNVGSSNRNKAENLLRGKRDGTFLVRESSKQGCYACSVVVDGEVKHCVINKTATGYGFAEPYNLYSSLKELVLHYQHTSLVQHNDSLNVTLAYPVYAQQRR

- binding against the reference [1]: gained
- binding against the reference [2]: gained
Substance: p85β (from UniProt O08908) phospho-p85β peptide
